In PMC10019781, “Structure and function of Plasmodium actin II in the parasite mosquito stages” (PLOS Pathogens, 2023):

B1: Plasmodium falciparum actin II (natural protein)
chain: not shown
modifications: methyl-histidine at H73 (around 90% of actin II when expressed in insect cells)
notes: actin II of Plasmodium falciparum, PlasmoDB PF3D7_1412500; gene synthesized and codon-optimized for insect cells; In the pyrene assays (critical concentration, polymerization) a mixture of pyrene-labelled and unlabelled actin (ratio 1:3) was used; The first four N-terminal residues are not resolved in the filament maps; also called PfActII; F-actin II; source: Sf9 (Spodoptera frugiperda) cells, …
B2: Plasmodium actin I (natural protein)
chain: not shown
notes: actin I of Plasmodium; its cited filament structures are of P. falciparum actin I; in the pyrene assays a mixture of pyrene-labelled and unlabelled actin was used; also called F-actin I

What was measured:
[1] = molecular target: the molecule itself; experiment: dynamic light scattering; non-polymerizing conditions; 1.3 mg/ml, 70 ul, 4°C
[2] = molecular target: the molecule itself; experiment: dynamic light scattering; polymerizing conditions, without JAS; 1.3 mg/ml, 70 ul, 4°C

Row | Protein | stoichiometry N [1] | stoichiometry N [2]
1 | B1 | 2 | –
2 | B2 | – | 2
